Reference: patent US20020111306A1
“And” between values parts separate entries of the source, which are not always exact repeats. Identical values can stand only once. Values belong to the molecule of their own block, whether it stands above or below them.

How the values were obtained:
[1] = target: human MCH1 receptor (MCH1) encoded by plasmid TL231 (pEXJ.HR-TL231) (human); assay: radioligand binding, membranes of Cos-7 cells transfected with MCH1, 0.1 nM radioligand, filtration; nonspecific binding defined with 10 µM unlabeled MCH
Chain of human MCH1 receptor (MCH1) encoded by plasmid TL231 (pEXJ.HR-TL231) (human) (chain, as listed by the source limits assumed): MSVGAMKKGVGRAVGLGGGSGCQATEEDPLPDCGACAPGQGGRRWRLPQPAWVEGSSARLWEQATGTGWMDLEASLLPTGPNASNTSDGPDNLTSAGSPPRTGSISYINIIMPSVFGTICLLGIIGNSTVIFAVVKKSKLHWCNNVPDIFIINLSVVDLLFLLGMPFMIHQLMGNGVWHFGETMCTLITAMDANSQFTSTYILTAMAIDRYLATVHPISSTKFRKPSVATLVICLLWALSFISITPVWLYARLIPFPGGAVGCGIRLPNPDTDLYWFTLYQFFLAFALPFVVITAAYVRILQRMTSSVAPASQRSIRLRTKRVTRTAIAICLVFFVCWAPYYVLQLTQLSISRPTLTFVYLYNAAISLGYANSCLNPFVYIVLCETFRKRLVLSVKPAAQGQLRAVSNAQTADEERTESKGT

[2] = target: human MCH1 receptor (MCH1) encoded by plasmid TL231 (pEXJ.HR-TL231) (human); assay: radioligand binding, membranes of Cos-7 cells transfected with MCH1, 0.1 nM radioligand, filtration
[3] = target: human MCH1 receptor (MCH1) encoded by plasmid TL231 (pEXJ.HR-TL231) (human); assay: cell-based or functional assay
[4] = target: mutant (short form) human MCH1 receptor encoded by plasmid BO120 (human); assay: cell-based or functional assay
[5] = target: human MCH1 receptor (MCH1) encoded by plasmid TL231 (pEXJ.HR-TL231) (human); assay: cell-based or functional assay; remark: listed apart in the source
[6] = target: mutant human MCH1 receptor encoded by plasmid R114 (M6A, M70A) (human) (UniProt Q99705); assay: cell-based or functional assay
Chain of UniProt Q99705 (Q99705 whole entry, stated change not applied): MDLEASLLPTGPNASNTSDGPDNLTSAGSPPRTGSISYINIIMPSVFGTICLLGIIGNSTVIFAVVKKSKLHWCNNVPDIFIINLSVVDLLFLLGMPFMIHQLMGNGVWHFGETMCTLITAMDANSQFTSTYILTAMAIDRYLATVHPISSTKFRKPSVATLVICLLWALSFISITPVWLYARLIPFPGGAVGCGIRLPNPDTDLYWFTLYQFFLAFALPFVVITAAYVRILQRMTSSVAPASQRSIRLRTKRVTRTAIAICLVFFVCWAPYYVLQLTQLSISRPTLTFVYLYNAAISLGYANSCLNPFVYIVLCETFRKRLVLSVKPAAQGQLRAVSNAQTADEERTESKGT

specific binding (fmol/mg membrane protein) [1]: 80 | specific binding as percent of total binding (% of total binding) [2]: 70
Molecule: [^125I]Phe^13,Tyr^19-MCH (from UniProt P20382 147-165) (peptide)

EC50 of extracellular acidification rate (microphysiometer), CHO cells transiently transfected with MCH1 [3]: 51.8 nM
Molecule: Phe^13,Tyr^19-MCH (from UniProt P20382 147-165) (peptide)

EC50 (nM), mobilization of intracellular calcium (FLIPR, fluo-3), COS-7 cells [4]: 3.5 nM | Max. Response (RFU), mobilization of intracellular calcium (FLIPR, fluo-3), COS-7 cells [4]: 30000 RFU and 25000 RFU | EC50 (nM), mobilization of intracellular calcium (FLIPR, fluo-3), COS-7 cells [5]: 60 nM | inositol phosphate (IP) production, Cos-7 cells co-transfected with MCH1 and a G alpha subunit, 10 µM MCH [5]: 1.4 fold | Max. Response (RFU), mobilization of intracellular calcium (FLIPR, fluo-3), COS-7 cells [6]: 2270 RFU and 1550 RFU
Molecule: DFDMLRCMLGRVYRPCWQV (peptide, UniProt P20382 147-165, looked up) [melanin concentrating hormone (MCH)]
